Data taken from doi:10.1101/2021.03.03.433722.

Target: MvaT F36D/M44D (P. aeruginosa) (UniProt Q9HW86)
Assay: ITC

Row | Substance | Kd [nM] | stoichiometry N
1 | gp4 K42E/K45E (natural protein) | 1360 | 0.52
2 | gp4 of Pseudomonas phage LUZ24 (natural protein) | 170 | 0.56
